Values quoted from earlier work as cited in paper PMC7031699.
Like-named read-outs stand apart in the source and are kept apart here.

What was measured:
[1] = target: Gq (Homo sapiens) (UniProt P50148)
[2] = target: Gq (Homo sapiens) (UniProt P50148); remark: listed apart in the source

UniProt P50148, sequence (P50148 whole entry): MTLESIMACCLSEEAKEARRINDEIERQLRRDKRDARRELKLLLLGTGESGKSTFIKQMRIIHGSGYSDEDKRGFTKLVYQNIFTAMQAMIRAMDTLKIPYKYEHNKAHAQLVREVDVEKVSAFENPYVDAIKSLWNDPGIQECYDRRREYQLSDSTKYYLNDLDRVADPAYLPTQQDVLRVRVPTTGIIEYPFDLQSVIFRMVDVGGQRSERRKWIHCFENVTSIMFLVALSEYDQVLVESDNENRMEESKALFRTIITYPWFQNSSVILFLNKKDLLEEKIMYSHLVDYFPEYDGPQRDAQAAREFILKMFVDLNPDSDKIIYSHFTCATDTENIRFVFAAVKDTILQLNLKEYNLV

Kd [1]: > 5000 nM
Kd [2]: 550 nM
Substance: NTS1 (from UniProt P20789)
